Results taken from paper PMC10570127 (The Journal of Biological Chemistry, 2023).

Tests used:
Sp_0475 = target: T1, Sp_0475 (Streptococcus pneumoniae, UniProt A0A0H2UNN2); format: biochemical
T1 sequence (A0A0H2UNN2 1-646): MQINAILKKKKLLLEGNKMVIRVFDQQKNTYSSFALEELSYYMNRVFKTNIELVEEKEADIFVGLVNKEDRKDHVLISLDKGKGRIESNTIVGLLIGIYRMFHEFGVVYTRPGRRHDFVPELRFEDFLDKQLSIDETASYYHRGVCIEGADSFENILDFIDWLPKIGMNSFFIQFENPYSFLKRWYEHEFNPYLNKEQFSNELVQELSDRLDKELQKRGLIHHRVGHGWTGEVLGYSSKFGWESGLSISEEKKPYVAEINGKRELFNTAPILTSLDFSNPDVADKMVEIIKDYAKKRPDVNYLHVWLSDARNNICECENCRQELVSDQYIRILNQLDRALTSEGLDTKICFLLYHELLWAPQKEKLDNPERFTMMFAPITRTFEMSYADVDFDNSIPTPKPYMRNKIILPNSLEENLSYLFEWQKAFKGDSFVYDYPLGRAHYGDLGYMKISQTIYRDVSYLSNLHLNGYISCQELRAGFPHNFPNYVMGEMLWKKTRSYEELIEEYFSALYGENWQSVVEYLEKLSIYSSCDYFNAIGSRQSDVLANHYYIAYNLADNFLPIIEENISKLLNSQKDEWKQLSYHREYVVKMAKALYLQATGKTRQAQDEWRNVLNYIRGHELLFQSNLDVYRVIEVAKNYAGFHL

[1] = system: CC(=O)N[C@H]1[C@H](Oc2ccc([N+](=O)[O-])cc2)O[C@H](COS(=O)(=O)O)[C@@H](O)[C@@H]1O; assay: Michaelis-Menten kinetics of hydrolysis by purified mutant; format: biochemical, Streptococcus pneumoniae; settings: active site; pH 7.0
[2] = system: CC(=O)N[C@H]1[C@H](Oc2ccc3c(C)cc(=O)oc3c2)O[C@H](COS(=O)(=O)O)[C@@H](O)[C@@H]1O; assay: as above; format: biochemical, Streptococcus pneumoniae; settings: active site; pH 7.0
purified protein [3] = substrate: CC(=O)N[C@H]1[C@H](Oc2ccc([N+](=O)[O-])cc2)O[C@H](COS(=O)(=O)O)[C@@H](O)[C@@H]1O; assay: purified protein; settings: active site; R633 interacts with the sulfate; pH 7.0
purified protein [4] = substrate: CC(=O)N[C@H]1[C@H](Oc2ccc3c(C)cc(=O)oc3c2)O[C@H](COS(=O)(=O)O)[C@@H](O)[C@@H]1O; assay: purified protein; settings: active site; pH 7.0

For `CC1=N[C@@H]2[C@@H](O)[C@H](O)[C@@H](CO)O[C@@H]2S1` [GlcNAc-thiazoline], the Ki (Sp_0475) was 6.6 ± 0.2 mM.

“Sp_0475 (Streptococcus pneumoniae TIGR4; D309A)” was tested, and the Km [1] was 4.0 ± 0.1 µM, the Km [2] was 1.5 ± 0.1 µM and the kcat [2] was 0.007 ± 0.0001 s⁻¹. It also gave a kcat/Km [2] of 4000 ± 1000 M⁻¹ s⁻¹.

“Sp_0475 (Streptococcus pneumoniae TIGR4; Y436F)” showed a Km [1] of 57 ± 4 µM, a kcat [1] of 0.15 ± 0.002 s⁻¹ and a kcat/Km [1] of 3000 ± 500 M⁻¹ s⁻¹.

B1: Sp_0475 (Streptococcus pneumoniae TIGR4) (protein)
chain: MQINAILKKKKLLLEGNKMVIRVFDQQKNTYSSFALEELSYYMNRVFKTNIELVEEKEADIFVGLVNKEDRKDHVLISLDKGKGRIESNTIVGLLIGIYRMFHEFGVVYTRPGRRHDFVPELRFEDFLDKQLSIDETASYYHRGVCIEGADSFENILDFIDWLPKIGMNSFFIQFENPYSFLKRWYEHEFNPYLNKEQFSNELVQELSDRLDKELQKRGLIHHRVGHGWTGEVLGYSSKFGWESGLSISEEKKPYVAEINGKRELFNTAPILTSLDFSNPDVADKMVEIIKDYAKKRPDVNYLHVWLSDARNNICECENCRQELVSDQYIRILNQLDRALTSEGLDTKICFLLYHELLWAPQKEKLDNPERFTMMFAPITRTFEMSYADVDFDNSIPTPKPYMRNKIILPNSLEENLSYLFEWQKAFKGDSFVYDYPLGRAHYGDLGYMKISQTIYRDVSYLSNLHLNGYISCQELRAGFPHNFPNYVMGEMLWKKTRSYEELIEEYFSALYGENWQSVVEYLEKLSIYSSCDYFNAIGSRQSDVLANHYYIAYNLADNFLPIIEENISKLLNSQKDEWKQLSYHREYVVKMAKALYLQATGKTRQAQDEWRNVLNYIRGHELLFQSNLDVYRVIEVAKNYAGFHL
Molecule B1 has a Km (purified protein [3]) of 250 ± 4 µM, a kcat (purified protein [3]) of 65 ± 0.3 s⁻¹ and a kcat/Km (purified protein [3]) of 260000 ± 80000 M⁻¹ s⁻¹. It also gave a Km (purified protein [4]) of 264 ± 7 µM, a kcat (purified protein [4]) of 55 ± 0.4 s⁻¹ and a kcat/Km (purified protein [4]) of 210000 ± 60000 M⁻¹ s⁻¹.
